The text below walks through data of patent US20160222130A1 (Astellas, published 2016).

The target in experiment [1] is human Tie2 (on human Tie2-expressing cells) (human, UniProt Q02763 23-1124). Description: cell-based or functional assay.
Experiment [2] deals with T1, Human Tie2 (1-452)r2-Fc (human, UniProt Q02763 23-452).
T1 construct: range 1-452
Description: ELISA; Tie2-Fc coated at 1 ug/mL, chemiluminescence. How it is done:
(§1) The next day, the immobilized solution was removed, and the plate was washed with a TBS-T solution, and incubated for 60 minutes by the addition of 50 μL of a Blocker™ Casein in TBS (Thermo Fisher Scientific Inc., 37532) to perform blocking. The resultant was washed with a TBS-T solution, and TIE-1-Igγ1-LALA, diluted with 0.05% Tween 20 (Nacalai Tesque Inc., 28353-85)—containing Blocker™ Casein in TBS from 0.03 ng/mL to 100 ng/mL through eight steps, was added thereto in the amount of 20 μL per well. The resultant was incubated at room temperature for 90 minutes and then washed with a TBS-T solution three times, and 20 μL of a biotin-labeled anti-human kappa light chain antibody, which had been diluted to 0.1 μg/mL with 0.05% Tween 20-containing Blocker™ Casein in TBS, was added thereto. The resultant was incubated at room temperature for 60 minutes and then washed with a TBS-T solution three times, and 20 μL of alkaline phosphatase-labeled streptavidin, which had been diluted to 0.1 μg/mL with 0.05% Tween 20-containing Blocker™ Casein in TBS, was added thereto. The resultant was incubated at room temperature for 60 minutes and then washed with a TBS-T solution three times, and 50 μL of Chemiluminescent Ultra Sensitive AP Microwell and/or Membrane Substrate (450 nm), which had been 5-fold diluted with 1 mM MgCl₂-containing 20 mM TBS (pH 9.8) as a substrate, was added thereto. The resultant was incubated at room temperature under light-shielding for 40 minutes, and then luminescent intensity thereof was measured with an EnVision™ multi-label counter. The EC₅₀ value of TIE-1-Igγ1-LALA with respect to the human Tie2 (1-452)-Fc chimeric protein and 23 mutant proteins thereof were calculated. The relative value of luminescent intensity of 100 ng/mL TIE-1-Igγ1-LALA as maximum concentration point with respect to human Tie2 (1-452)-Fc chimeric protein and 23 mutant proteins thereof when the convergence value of the sigmoid curve of TIE-1-Igγ1-LALA binding to the human Tie2 (1-452)-Fc chimeric protein which was taken as 100% was calculated (Table 8 and Table 9). Further, the EC₅₀ value and the convergence value were calculated by Sigmoid-Emax model non-linear regression analysis.

Experiment [3] concerns the target T2, Human Tie2 (1-452)r3-Fc (human, UniProt Q02763 23-452).
T2 construct: range 1-452
The experiment is described as above. Here is the method:
as §1

Experiment [4] addresses T3, Human Tie2 (1-452)r4-Fc (human, UniProt Q02763 23-452).
T3 construct: range 1-452
The experiment is described as above. How it is done:
as §1

In experiment [5] the target is T4, Human Tie2 (1-452)r5-Fc (human, UniProt Q02763 23-452).
T4 construct: range 1-452
Described as above. How it is done: as §1

The target of experiment [6] is T5, Human Tie2 (1-452)r6-Fc (human, UniProt Q02763 23-452).
T5 construct: range 1-452
The description is as above. How it is done: as §1

Experiment [7] addresses T6, Human Tie2 (1-452)r7-Fc (human, UniProt Q02763 23-452).
T6 construct: range 1-452
The experiment is described as above. How it is done:
as §1

In experiment [8] the target is T7, Human Tie2 (1-452)g1-Fc (human, UniProt Q02763 23-452).
T7 construct: range 1-452
Described as above. Here is the method:
as §1

The target of experiment [9] is T8, Human Tie2 (1-452)g2-Fc (human, UniProt Q02763 23-452).
T8 construct: range 1-452
The description is as above. Here is the method: as §1

In experiment [10] the target is T9, Human Tie2 (1-452)g3-Fc (human, UniProt Q02763 23-452).
T9 construct: range 1-452
The description is as above. How it is done:
as §1

Experiment [11] deals with T10, Human Tie2 (1-452)g4-Fc (human, UniProt Q02763 23-452).
T10 construct: range 1-452
The description is as above. Here is the method:
as §1

Experiment [12] addresses T11, Human Tie2 (1-452)g5-Fc (human, UniProt Q02763 23-452).
T11 construct: range 1-452
The description is as above. Here is the method:
as §1

Experiment [13] concerns the target T12, Human Tie2 (1-452)g6-Fc (human, UniProt Q02763 23-452).
T12 construct: range 1-452
The description is as above. How it is done: as §1

Experiment [14] deals with T13, Human Tie2 (1-452)m1-Fc (human, UniProt Q02763 23-452).
T13 construct: range 1-452
The description is as above. How it is done:
as §1

For experiment [15], the target named is T14, Human Tie2 (1-452)m3-Fc (human, UniProt Q02763 23-452).
T14 construct: range 1-452
Described as above. How it is done:
as §1

Experiment [16] has as its target T15, Human Tie2 (1-452)y1-Fc (human, UniProt Q02763 23-452).
T15 construct: range 1-452
The experiment is described as above. How it is done:
as §1

In experiment [17] the target is T16, Human Tie2 (1-452)c1-Fc (human, UniProt Q02763 23-452).
T16 construct: range 1-452
The description is as above. How it is done:
as §1

Experiment [18] addresses T17, human Tie2 (1-452)-Fc chimeric protein (human, UniProt Q02763 23-452).
T17 construct: range 1-452; The stated range 1-452 begins at residue 1 of the precursor
The experiment is described as above. How it is done:
as §1

Experiment [19] has as its target T18, Human Tie2 (1-452)r1-Fc (human, UniProt Q02763 23-452).
T18 construct: range 1-452
The experiment is described as above. Here is the method:
as §1

T5 sequence (Q02763 other isoform, or with tags, fused parts or gaps limits assumed, form in doubt): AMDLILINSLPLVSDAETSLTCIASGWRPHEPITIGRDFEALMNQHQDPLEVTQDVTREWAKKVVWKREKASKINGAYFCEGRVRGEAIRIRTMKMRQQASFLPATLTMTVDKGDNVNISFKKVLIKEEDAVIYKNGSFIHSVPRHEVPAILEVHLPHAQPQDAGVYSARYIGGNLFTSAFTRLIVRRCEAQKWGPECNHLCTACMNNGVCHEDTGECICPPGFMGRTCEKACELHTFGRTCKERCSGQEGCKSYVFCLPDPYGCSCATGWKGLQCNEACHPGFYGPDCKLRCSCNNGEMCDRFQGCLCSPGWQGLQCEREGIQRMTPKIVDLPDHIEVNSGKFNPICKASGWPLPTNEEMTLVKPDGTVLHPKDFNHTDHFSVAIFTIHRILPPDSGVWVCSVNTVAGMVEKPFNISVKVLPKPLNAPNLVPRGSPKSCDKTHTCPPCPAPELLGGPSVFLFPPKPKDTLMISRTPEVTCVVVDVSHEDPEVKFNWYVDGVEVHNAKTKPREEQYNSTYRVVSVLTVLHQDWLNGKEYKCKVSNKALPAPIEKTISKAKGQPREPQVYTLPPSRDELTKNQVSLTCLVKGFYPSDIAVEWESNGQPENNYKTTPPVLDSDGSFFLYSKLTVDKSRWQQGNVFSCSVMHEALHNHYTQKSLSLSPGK
T15 sequence (Q02763 other isoform, or with tags, fused parts or gaps limits assumed, form in doubt): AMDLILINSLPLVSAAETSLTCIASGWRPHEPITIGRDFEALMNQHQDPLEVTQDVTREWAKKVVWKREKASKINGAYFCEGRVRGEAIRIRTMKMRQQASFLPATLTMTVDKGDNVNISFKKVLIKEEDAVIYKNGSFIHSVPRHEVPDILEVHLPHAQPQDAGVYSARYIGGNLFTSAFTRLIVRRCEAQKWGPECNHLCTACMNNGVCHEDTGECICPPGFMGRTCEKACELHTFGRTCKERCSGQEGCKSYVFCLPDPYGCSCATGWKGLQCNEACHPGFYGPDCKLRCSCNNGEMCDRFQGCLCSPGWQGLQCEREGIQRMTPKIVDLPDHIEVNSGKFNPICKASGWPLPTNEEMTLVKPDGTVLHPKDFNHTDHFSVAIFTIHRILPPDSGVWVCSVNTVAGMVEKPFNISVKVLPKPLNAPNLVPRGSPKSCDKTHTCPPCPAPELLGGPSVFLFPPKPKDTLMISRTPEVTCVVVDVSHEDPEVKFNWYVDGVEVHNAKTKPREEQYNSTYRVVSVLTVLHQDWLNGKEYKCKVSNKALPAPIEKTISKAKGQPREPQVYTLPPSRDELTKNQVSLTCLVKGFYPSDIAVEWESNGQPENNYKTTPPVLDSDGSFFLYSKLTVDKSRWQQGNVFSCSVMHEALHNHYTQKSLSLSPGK
T8 sequence (Q02763 other isoform, or with tags, fused parts or gaps limits assumed, form in doubt): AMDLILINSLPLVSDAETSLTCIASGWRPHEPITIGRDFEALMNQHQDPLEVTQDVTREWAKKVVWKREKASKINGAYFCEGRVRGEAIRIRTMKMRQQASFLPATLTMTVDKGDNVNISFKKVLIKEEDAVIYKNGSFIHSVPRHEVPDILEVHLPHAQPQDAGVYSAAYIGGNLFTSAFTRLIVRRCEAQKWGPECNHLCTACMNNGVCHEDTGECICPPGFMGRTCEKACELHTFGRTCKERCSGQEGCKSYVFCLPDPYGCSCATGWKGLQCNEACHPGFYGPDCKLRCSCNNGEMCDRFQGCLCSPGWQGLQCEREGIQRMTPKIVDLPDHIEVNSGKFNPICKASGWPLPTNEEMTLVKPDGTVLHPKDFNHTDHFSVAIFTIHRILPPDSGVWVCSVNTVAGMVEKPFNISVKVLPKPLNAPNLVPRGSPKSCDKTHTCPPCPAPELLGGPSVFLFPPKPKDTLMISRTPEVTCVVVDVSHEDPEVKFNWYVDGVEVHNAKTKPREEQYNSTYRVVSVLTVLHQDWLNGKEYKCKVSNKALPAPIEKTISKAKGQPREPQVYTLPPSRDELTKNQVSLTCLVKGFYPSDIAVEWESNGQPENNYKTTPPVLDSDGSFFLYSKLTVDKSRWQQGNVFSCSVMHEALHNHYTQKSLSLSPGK
T11 sequence (Q02763 other isoform, or with tags, fused parts or gaps limits assumed, form in doubt): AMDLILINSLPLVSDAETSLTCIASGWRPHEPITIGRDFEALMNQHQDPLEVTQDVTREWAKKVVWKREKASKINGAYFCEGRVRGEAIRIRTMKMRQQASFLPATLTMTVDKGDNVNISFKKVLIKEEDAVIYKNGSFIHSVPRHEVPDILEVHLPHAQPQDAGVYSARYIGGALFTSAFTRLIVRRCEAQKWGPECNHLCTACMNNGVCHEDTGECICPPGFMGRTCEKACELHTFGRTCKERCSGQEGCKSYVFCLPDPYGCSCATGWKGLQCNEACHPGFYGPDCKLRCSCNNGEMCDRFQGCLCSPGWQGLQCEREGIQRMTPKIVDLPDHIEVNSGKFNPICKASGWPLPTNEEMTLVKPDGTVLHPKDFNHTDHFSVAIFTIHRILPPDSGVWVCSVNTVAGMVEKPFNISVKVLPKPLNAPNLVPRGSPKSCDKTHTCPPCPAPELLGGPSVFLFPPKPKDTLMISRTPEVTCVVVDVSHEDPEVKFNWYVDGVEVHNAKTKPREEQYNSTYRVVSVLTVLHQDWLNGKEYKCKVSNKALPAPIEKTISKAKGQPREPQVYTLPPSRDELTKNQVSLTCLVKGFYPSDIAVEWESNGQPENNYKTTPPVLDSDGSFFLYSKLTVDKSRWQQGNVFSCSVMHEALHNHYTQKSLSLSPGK
T16 sequence (Q02763 other isoform, or with tags, fused parts or gaps limits assumed, form in doubt): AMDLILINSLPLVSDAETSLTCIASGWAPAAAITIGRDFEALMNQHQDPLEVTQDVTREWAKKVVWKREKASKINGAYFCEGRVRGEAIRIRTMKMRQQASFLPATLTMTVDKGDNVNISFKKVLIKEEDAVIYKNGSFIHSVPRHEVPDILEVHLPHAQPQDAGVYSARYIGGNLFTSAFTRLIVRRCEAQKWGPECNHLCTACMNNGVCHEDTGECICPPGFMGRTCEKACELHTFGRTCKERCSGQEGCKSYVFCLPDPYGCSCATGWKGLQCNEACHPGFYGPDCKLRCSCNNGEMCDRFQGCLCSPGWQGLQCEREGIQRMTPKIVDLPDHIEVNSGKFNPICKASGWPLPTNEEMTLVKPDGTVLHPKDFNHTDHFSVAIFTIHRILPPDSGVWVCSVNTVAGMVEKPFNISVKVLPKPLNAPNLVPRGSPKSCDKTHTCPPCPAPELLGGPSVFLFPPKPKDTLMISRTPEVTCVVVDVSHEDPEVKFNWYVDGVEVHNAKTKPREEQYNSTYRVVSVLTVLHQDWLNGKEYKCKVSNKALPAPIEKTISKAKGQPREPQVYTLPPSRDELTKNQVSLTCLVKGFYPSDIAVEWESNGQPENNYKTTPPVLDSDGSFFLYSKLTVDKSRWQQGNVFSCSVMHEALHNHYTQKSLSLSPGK
T7 sequence (Q02763 other isoform, or with tags, fused parts or gaps limits assumed, form in doubt): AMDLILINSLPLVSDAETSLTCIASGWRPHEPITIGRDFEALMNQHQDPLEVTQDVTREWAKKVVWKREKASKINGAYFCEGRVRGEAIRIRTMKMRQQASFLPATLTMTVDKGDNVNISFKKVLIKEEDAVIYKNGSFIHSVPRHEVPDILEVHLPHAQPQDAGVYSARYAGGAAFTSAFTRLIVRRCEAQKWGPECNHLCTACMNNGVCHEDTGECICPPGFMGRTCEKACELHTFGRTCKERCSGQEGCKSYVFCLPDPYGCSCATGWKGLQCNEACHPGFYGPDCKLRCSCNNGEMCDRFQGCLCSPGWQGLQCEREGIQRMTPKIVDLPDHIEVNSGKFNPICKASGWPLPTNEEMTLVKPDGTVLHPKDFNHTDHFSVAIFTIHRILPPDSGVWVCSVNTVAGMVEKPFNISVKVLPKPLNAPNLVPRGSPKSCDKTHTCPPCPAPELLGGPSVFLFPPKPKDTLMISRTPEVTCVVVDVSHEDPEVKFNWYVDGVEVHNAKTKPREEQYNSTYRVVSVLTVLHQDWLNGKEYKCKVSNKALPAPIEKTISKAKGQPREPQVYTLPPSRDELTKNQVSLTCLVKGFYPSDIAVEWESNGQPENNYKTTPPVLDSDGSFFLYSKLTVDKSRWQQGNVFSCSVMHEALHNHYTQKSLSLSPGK

B1: TIE-1-Igγ1-LALA (antibody, human IgG1, kappa, L234A L235A)
heavy: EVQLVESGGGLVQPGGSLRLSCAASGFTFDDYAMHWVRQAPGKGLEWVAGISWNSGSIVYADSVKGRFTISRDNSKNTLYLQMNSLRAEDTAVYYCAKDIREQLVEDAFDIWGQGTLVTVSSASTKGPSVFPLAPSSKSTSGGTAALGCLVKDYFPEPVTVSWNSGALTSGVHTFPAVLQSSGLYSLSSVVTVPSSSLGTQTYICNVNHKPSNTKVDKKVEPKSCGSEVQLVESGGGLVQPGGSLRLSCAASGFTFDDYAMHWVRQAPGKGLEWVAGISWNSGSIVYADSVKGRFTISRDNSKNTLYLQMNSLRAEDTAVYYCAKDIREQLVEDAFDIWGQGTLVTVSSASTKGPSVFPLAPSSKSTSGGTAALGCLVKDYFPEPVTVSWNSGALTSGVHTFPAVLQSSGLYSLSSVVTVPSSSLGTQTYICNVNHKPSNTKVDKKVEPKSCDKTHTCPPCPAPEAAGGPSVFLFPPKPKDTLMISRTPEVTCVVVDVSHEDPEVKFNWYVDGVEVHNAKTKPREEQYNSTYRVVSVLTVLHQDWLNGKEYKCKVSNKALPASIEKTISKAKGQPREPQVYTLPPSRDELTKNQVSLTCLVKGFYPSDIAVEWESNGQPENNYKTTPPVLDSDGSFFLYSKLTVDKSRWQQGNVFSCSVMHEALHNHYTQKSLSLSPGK
light: DIQMTQSPSSLSASVGDRVTITCRSSQSLLHSHRYNYLDWYQQKPGKAPKLLIYLGSNRASGVPSRFSGSGSGTDFTLTISSVQPEDFATYYCMQTLQTPLTFGQGTKVEIKRTVAAPSVFIFPPSDEQLKSGTASVVCLLNNFYPREAKVQWKVDNALQSGNSQESVTEQDSKDSTYSLSSTLTLSKADYEKHKVYACEVTHQGLSSPVTKSFNRGEC
notes: Tandem tetravalent format: two heavy chains (VH-CH1-linker-VH-CH1-CH2-CH3) and four light chains; also called tetravalent anti-human Tie2 antibody with L234A, L235A and P331S
On to B1, for which the “EC50 value of anti-apoptotic activity, human Tie2-expressing BaF3 cell” value in [1] came out at 3.65 ng/mL. For the same molecule, the EC50 in experiment [2] came to 0.9 ng/mL; in experiment [3], 1 ng/mL; in experiment [4], 1 ng/mL; in [5] it was 1 ng/mL; in [6], 1 ng/mL; in experiment [7] it was 1.1 ng/mL. Moreover, the EC50 in [8] worked out at 12.3 ng/mL; in [9] it was 5.5 ng/mL; in experiment [10], 1.1 ng/mL; in experiment [11], 18 ng/mL; in experiment [12], 2.2 ng/mL; in experiment [13], 1.3 ng/mL. Also, the concentration for a half-maximal effect (EC50) in experiment [14] was found to be 1 ng/mL; in [15], 1 ng/mL; in experiment [16], 1 ng/mL; in experiment [17], 1 ng/mL; in [18] it was 1.1 ng/mL; in experiment [19], 1.1 ng/mL.
